Patent US20200199244A1 (published 2020)
Where a chain is given by its changes, count along the chain named. Several values for one entry are separate records, joined by “and”; a condition that tells them apart may be missing. Equal values may be shown once. Blank lines part the entries; values can stand above or below the binder they belong to.

Key:
[1] = target: T1, wild type cynomolgus monkey CD40 Fc fusion (cynomolgus monkey (Macaca …)); assay: SPR (ProteOn XPR36), CD40-Fc captured via anti-human IgG(Fc), dAb as analyte, 25 C
T1 construct: also called wt-cyno-CD40; wt-cCD40; not shown: human IgG1 Fc
T1 chain: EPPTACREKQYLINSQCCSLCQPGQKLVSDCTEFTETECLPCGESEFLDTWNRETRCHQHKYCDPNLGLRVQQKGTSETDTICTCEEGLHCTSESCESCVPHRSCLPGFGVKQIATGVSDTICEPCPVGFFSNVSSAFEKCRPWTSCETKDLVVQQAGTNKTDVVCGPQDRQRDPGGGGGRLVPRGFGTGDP

[2] = target: T2, human CD40 (W109L, L121P) Fc fusion (human, UniProt P25942 21-193); assay: as above
T2 construct: Made by site-directed mutagenesis of the wild type construct; no cleavage site is stated; also called hCD40-M4; hCD40 M4 (W109L, L121P); not shown: human IgG1 Fc

[3] = target: T3, human CD40 (H76R, W109L, L121P) Fc fusion (human); assay: as above
T3 construct: Made by site-directed mutagenesis of the wild type construct; no cleavage site is stated; also called hCD40-M5; hCD40-M5 (H76R, W109L, L121P); not shown: human IgG1 Fc
T3 chain: T1 chain with S95A, L106S, R142H, Q172L

[4] = target: T4, human CD40 (BMS, CY24FEB06-01) (human, UniProt P25942 21-193); assay: ELISA RBA, competition with IZ-CD40L
T4 construct: Soluble reagent of the bead and ELISA RBA; It is detected with an anti-human IgG (Fc) mAb, so it may be a CD40-Ig fusion
Experimental: Clear walled High Bind, 384-well plates (Corning, UK) were coated with 25 μl of 1 μg/ml Neutravidin in 0.2 M carbonate-bicarbonate buffer, pH 9.4 overnight at 4° C. The following day, assay plates were washed with 0.1% (v/v) Tween PBS buffer, blocked with 1% (w/v) BSA in PBS for 1 hour at room temperature and washed again. […] Following washing of the assay plate, the dAb:human CD40 complex was incubated in the assay plate at room temperature for 2 hours with gentle agitation. […] Absorbance signal was measured using a SpectraMax® M5e plate reader (Molecular Devices) at 450 nm following neutralization with 1M HCl solution.

[5] = target: T5, wild type cynomolgus monkey CD40 Fc fusion (cynomolgus monkey (Macaca …)); assay: SPR, ProteOn XPR36; CD40-Fc captured, dAb analyte
T5 construct: also called wt-cCD40; wt-cyno-CD40; not shown: human IgG1 Fc
T5 chain: T1 chain

[6] = target: T6, human CD40 (W109R) Fc fusion (Chimpanzee CD40) (human, UniProt P25942 21-193); assay: SPR, ProteOn XPR36; CD40-Fc captured, dAb analyte
T6 construct: Same construct as wt-hCD40 with W109R (the residue of chimpanzee CD40); also called hCD40-M3; hCD40 M3 (W109R); not shown: human IgG1 Fc

[7] = target: T7, human CD40 (W109L, L121P) Fc fusion (human, UniProt P25942 21-193); assay: SPR, ProteOn XPR36; CD40-Fc captured, dAb analyte
T7 construct: Same construct as wt-hCD40 with W109L and L121P; also called hCD40-M4; hCD40 M4 (W109L, L121P); not shown: human IgG1 Fc

[8] = target: T8, human CD40 (H76R, W109L, L121P) Fc fusion (human); assay: SPR, ProteOn XPR36; CD40-Fc captured, dAb analyte
T8 construct: Same construct as wt-hCD40 with H76R, W109L and L121P; also called hCD40-M5; hCD40-M5 (H76R, W109L, L121P); not shown: human IgG1 Fc
T8 chain: T1 chain with S95A, L106S, R142H, Q172L

[9] = target: T9, wild type human CD40 Fc fusion (human, UniProt P25942 21-193); assay: SPR, ProteOn XPR36; CD40-Fc captured, dAb analyte; 1:1 fit; repeat
T9 construct: also called wt-hCD40; not shown: human IgG1 Fc

[10] = target: T10, human CD40 (H76R) Fc fusion (human, UniProt P25942 21-193); assay: SPR, ProteOn XPR36; CD40-Fc captured, dAb analyte; 1:1 fit;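 for Kd: CD40-Fc captured on anti-human IgG(Fc) surface of a GLC chip, buffer pH 7.1, sensorgrams double-referenced against surfaces without CD40-Fc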;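 for koff: CD40-Fc captured on anti-human IgG(Fc) surface of a GLC chip, buffer pH 7.1, sensorgrams double-referenced against surfaces without CD40-Fc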;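 for kon: CD40-Fc captured on anti-human IgG(Fc) surface of a GLC chip, buffer pH 7.1, sensorgrams double-referenced against surfaces without CD40-Fc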
T10 construct: also called hCD40-M1; hCD40 M1 (H76R); not shown: human IgG1 Fc

[11] = target: T9, wild type human CD40 Fc fusion; assay: as above
Experimental: Assays were performed on a BioRad ProteOn XPR36 SPR instrument. The SPR surfaces were prepared by immobilizing 8 μg/ml anti-human IgG(Fc) antibody (Biacore/GE Healthcare) in 10 mM sodium acetate pH 4.5 on a BioRad GLC sensor chip using standard ethyl(dimethylaminopropyl) carbodiimide (EDC)/N-hydroxysuccinimide (NHS) chemistry, with ethanolamine blocking. The running buffer for immobilization and kinetic binding analysis was 10 mM sodium phosphate, 130 mM sodium chloride, 0.05% tween 20, pH 7.1. CD40-Fc fusion proteins at concentrations of 20 μg/ml were captured in the vertical orientation on these surfaces via the Fc tail, and reference surfaces lacking CD40-Fc proteins were used for reference subtraction. […] The surfaces were regenerated in both horizontal and vertical orientations with 30 s pulses of 3 M MgCl₂ followed by running buffer at 60 μl/min. Sensogram data was double-referenced and then fitted to a 1:1 Langmuir model using BioRad ProteOn Manager V.2.1.0.38 software, to determine the association rate constant (ka), the dissociation rate constant (kd), and the equilibrium dissociation constant (KD).

[12] = target: T4, human CD40 (BMS, CY24FEB06-01); assay: bead RBA, competition with IZ-CD40L
[13] = target: T11, human CD40 expressed on stably transfected CHO-DG44 cells (human, UniProt P25942 21-277); assay: CHO-CD40 cell RBA, competition with IZ-CD40L
T11 construct: also called CHO-CD40

B1: BMS3h-56-2 (other)
VH: EVQLLESGGGLVQPGGSLRLSCAASGFTFRDYEMWWVRQAPGKGLERVSAINPQGTRTYYADSVKGRFTISRDNSKNTLYLQMNSLRAEDTAVYYCAKLPFTFDDWGQGTLVTVSS
notes: Anti-human CD40 domain antibody (dAb), a single human VH domain
binding result [1]: no binding (tested: 405 nM (highest dAb concentration))

B2: BMS3h-56-5 (other)
VH: B1 VH with K65M
notes: as for B1
binding result [2]: no binding (tested: 405 nM (highest dAb concentration)) | binding result [3]: no binding (tested: 405 nM (highest dAb concentration)) | binding result [1]: no binding (tested: 405 nM (highest dAb concentration))

B3: BMS3h-56-217 (other)
VH: B1 VH with Q54W, T56S, R57L, D104E
notes: as for B1
binding result [2]: no binding (tested: 405 nM (highest dAb concentration)) | binding result [3]: no binding (tested: 405 nM (highest dAb concentration)) | binding result [1]: no binding (tested: 405 nM (highest dAb concentration))

B4: BMS3h-56-202 (other)
VH: B1 VH with F101T, T102Y, D104S, W106R
notes: as for B1
binding result [2]: no binding (tested: 405 nM (highest dAb concentration)) | binding result [3]: no binding (tested: 405 nM (highest dAb concentration)) | binding result [1]: no binding (tested: 405 nM (highest dAb concentration))

B5: BMS3h-56-206 (other)
VH: B1 VH with Y95H, F101M, T102F, D104E, S116N
notes: as for B1
binding result [2]: no binding (tested: 405 nM (highest dAb concentration)) | binding result [3]: no binding (tested: 405 nM (highest dAb concentration)) | binding result [1]: no binding (tested: 405 nM (highest dAb concentration))

EC50 [4]: 3210 nM and 1340 nM
B6: BMS3h-257 (other)
VH: EVQLLESGGGLVQPGGSLRLSCAASGFTFQNYQMAWVRQAPGKGLEWVSTISGTGKNTYYADSVKGRFTISRDNSKNTLYLQMNSLRAEDTAVYYCAKTPQNYFSVRRFDYWGQGTLVTVSS
notes: dAb, single VH

Kd [9]: 6.08 nM | koff [9]: 0.000728 s⁻¹ | kon [9]: 120000 M⁻¹ s⁻¹ | Kd [10]: 3.98 nM | koff [10]: 0.00051 s⁻¹ | kon [10]: 128000 M⁻¹ s⁻¹ | Kd [11]: 3.26 nM | koff [11]: 0.000362 s⁻¹ | kon [11]: 111000 M⁻¹ s⁻¹
B7: BMS3h-38-211 (other)
VH: EVQLLASGGGLVQPGGSLRLSCAASGFTFEEEEMIWVRQAPGKGLEWVSAISRQGGSTYYADSVKGRFTISRDNSKNTLYLQMNSLRAEDTAVYYCGKEPFRYDYWGQGTLVTVSS
notes: Anti-human CD40 domain antibody (dAb), single VH domain
binding result [5]: no binding (tested: dAb tested up to 405 nM) | binding result [6]: no binding (tested: dAb tested up to 405 nM) | binding result [7]: no binding (tested: dAb tested up to 405 nM) | binding result [8]: no binding (tested: dAb tested up to 405 nM)

Kd [9]: 6.02 nM | koff [9]: 0.00082 s⁻¹ | kon [9]: 136000 M⁻¹ s⁻¹ | Kd [10]: 3.03 nM | koff [10]: 0.00053 s⁻¹ | kon [10]: 175000 M⁻¹ s⁻¹ | Kd [11]: 2.1 nM | koff [11]: 0.000288 s⁻¹ | kon [11]: 137000 M⁻¹ s⁻¹
B8: BMS3h-38-215 (other)
VH: B7 VH with R53G, Q54L, G56W
notes: as for B7
binding result [5]: no binding (tested: dAb tested up to 405 nM) | binding result [6]: no binding (tested: dAb tested up to 405 nM) | binding result [7]: no binding (tested: dAb tested up to 405 nM) | binding result [8]: no binding (tested: dAb tested up to 405 nM)

Kd [9]: 2.37 nM | koff [9]: 0.00034 s⁻¹ | kon [9]: 144000 M⁻¹ s⁻¹ | Kd [10]: 3.41 nM | koff [10]: 0.000481 s⁻¹ | kon [10]: 141000 M⁻¹ s⁻¹ | Kd [11]: 2.34 nM | koff [11]: 0.000296 s⁻¹ | kon [11]: 127000 M⁻¹ s⁻¹
B9: BMS3h-38-217 (other)
VH: B7 VH with Q54R, G56Y
notes: as for B7
binding result [5]: no binding (tested: dAb tested up to 405 nM) | binding result [6]: no binding (tested: dAb tested up to 405 nM) | binding result [7]: no binding (tested: dAb tested up to 405 nM) | binding result [8]: no binding (tested: dAb tested up to 405 nM)

EC50 [4]: > 10000 nM and 6760 nM
B10: BMS3h-287 (other)
VH: EVQLLESGGGLVQPGGSLRLSCAASGFTFTNYRMSWVRQAPGKGLEWVSAIDDLGVSTYYADSVKGRFTISRDNSKNTLYLQMNSLRAEDTAVYYCAKWRLKNSQPTDFDYWGQGTLVTVSS
notes: dAb, single VH

Kd [9]: 2 nM | koff [9]: 0.000426 s⁻¹ | kon [9]: 213000 M⁻¹ s⁻¹ | Kd [10]: 2.58 nM | koff [10]: 0.000562 s⁻¹ | kon [10]: 217000 M⁻¹ s⁻¹ | Kd [11]: 1.96 nM | koff [11]: 0.000417 s⁻¹ | kon [11]: 212000 M⁻¹ s⁻¹
B11: BMS3h-37-2 (other)
VH: EVQLLESGGGLVQPGGSLRLSCAASGFTFEWYEMQWVRRAPGKGLEWVSAISGDGYRTYYADSVKGRFTISRDNSKNTLYLQMNSLRAEDTAVYYCAKELGYFDYWGRGTLVTVSS
notes: as for B7
binding result [5]: no binding (tested: dAb tested up to 405 nM) | binding result [6]: no binding (tested: dAb tested up to 405 nM) | binding result [7]: no binding (tested: dAb tested up to 405 nM) | binding result [8]: no binding (tested: dAb tested up to 405 nM)

Kd [9]: 2.28 nM | koff [9]: 0.00064 s⁻¹ | kon [9]: 281000 M⁻¹ s⁻¹ | Kd [10]: 2.39 nM | koff [10]: 0.000717 s⁻¹ | kon [10]: 300000 M⁻¹ s⁻¹ | Kd [11]: 1.92 nM | koff [11]: 0.00056 s⁻¹ | kon [11]: 291000 M⁻¹ s⁻¹
B12: BMS3h-37-11 (other)
VH: B11 VH with R39K, W106R
notes: as for B7
binding result [5]: no binding (tested: dAb tested up to 405 nM) | binding result [6]: no binding (tested: dAb tested up to 405 nM) | binding result [7]: no binding (tested: dAb tested up to 405 nM) | binding result [8]: no binding (tested: dAb tested up to 405 nM)

EC50 [12]: 800 nM | EC50 [13]: 1400 nM
B13: BMS3h-217 (other)
VL: DIQMTQSPSSLSASVGDRVTITCRASHFIGTLLSWYQQKPGKAPKLLITYGSLLQSGVPSRFSGSGSGTDFTLTISSLQPEDFATYYCGQGVLWPATFGQGTKVEIKR
notes: dAb, single VK

EC50 [4]: 2770 nM
B14: BMS3h-233 (other)
VH: EVQLLESGGGLVQPGGSLRLSCAASGFTFAHYNMRWVRQAPGKGLEWVSTITKTGFRTYYADSVKGRFTISRDNSKNTLYLQMNSLRAEDTAVYYCAKAGQFDFDYWGQGTLVTVSS
notes: dAb, single VH

EC50 [4]: 670 nM and 870 nM
B15: BMS3h-231 (other)
VH: EVQLLESGGGLVQPGGSLRLSCAASGFTFSAYNMWWARQAPGKGLEWVSWINSTGSRTYYADSVKGRFTISRDNSKNTLYLQMNSLRAEDTAVYYCAKNWHRGRFDYWGQGTLVTVSS
notes: dAb, single VH
